The text below walks through data of patent US20060257492A1, “Suspension of calcium phosphate particulates for local delivery of therapeutic agents” (DePuy Products, Inc., priority 2005, published 2006).

Data set [1] can be described thus: Osteocalcin adsorption, elution and dissolution test on biomimetic apatite (HPLC). Type of data set: physicochemical. The settings on record: 20 μg protein. On the procedure:
The test with osteocalcin was conducted by incubating biomimetic apatite prepared on Ti6Al4V substrates with phosphate buffered saline (PBS) containing 0.1 mg/mL (bovine serum albumin) BSA. […] Eighty five percent of the original protein (20 μg) is adsorbed by biomimetic apatite crystals within 3 hours of test. An elution test was designed to further test the affinity of biomimetic apatite to osteocalcin in PBS containing 0.1 mg/mL BSA was measured (FIG. 6). Only ˜6% of the originally applied protein (20 μg) was eluted out from the biomimetic apatite crystals after 20 hours of incubation.

The nature of data set [2]: TGF-β1 adsorption, elution and dissolution test on biomimetic apatite (HPLC). Type of data set: physicochemical. On the procedure: A parallel study was designed for testing the interaction between biomimetic apatite mineral with TGF-β1 by using a sodium acetate buffer containing 0.1 mg/mL BSA. […] Fifty five percent of growth factor (20 μg) was adsorbed by biomimetic apatite crystallites after 4 hours. Ten percent additional protein was adsorbed in the next 20 hour.

With “osteocalcin (YLYQWLGAPVPYPDPLEPRREVCELNPDCDELADHIGFQEAYRRFYGPV; UniProt P02818 52-100, looked up)”, the “originally applied protein eluted out from the biomimetic apatite crystals” value in data set [1] (PBS containing 0.1 mg/mL BSA, after 20 hours of incubation) is reported as approximately 6%. Moreover, the “original protein adsorbed by biomimetic apatite crystals” value in data set [1] (PBS containing 0.1 mg/mL BSA, within 3 hours) is given as “Eighty five”. Also, the “protein recovered after dissolution of the minerals in acid” value in data set [1] (minerals fully dissolved in acid) was approximately 64%.

“transforming growth factor-beta-1 [TGF-β1]”: the “growth factor adsorbed by biomimetic apatite crystallites” value in data set [2] (20 μg, sodium acetate buffer containing 0.1 mg/mL BSA, after 4 hours) is reported as “Fifty five”. Moreover, in data set [2] (compared with osteocalcin), the “elution and dissolution profiles” value is on record as “very similar to those of osteocalcin”. The additional protein adsorbed entry in data set [2] (sodium acetate buffer containing 0.1 mg/mL BSA, in the next 20 hour) is “Ten”.
